Assay results as given in patent publication US20130109581A1, “POSITIVELY CHARGED SPECIES AS BINDING REAGENTS IN THE SEPARATION OF PROTEIN AGGREGATES FROM MONOMERS” (priority 2009, published 2013).
Where “and” joins values, the source holds several entries; their conditions need not be identical. Equal values may be shown once. Read-outs that look alike come from different tables or passages of the source.

Assays:
Abeta 1-42 globulomer [1] = target: Abeta 1-42 globulomer (UniProt P05067); assay: 42 (globulomer) RLU over 40 (Abeta 1-40 monomer) RLU
Abeta 1-42 globulomer [2] = target: Abeta 1-42 globulomer (UniProt P05067); assay: MPA, 0.5 over 0 ng/mL globulomer in CSF, ZW3-14 wash
[3] = target: PrPSc, prion aggregates of prion infected hamster (Syrian hamster) (UniProt P04273); assay: cell-based or functional assay
Abeta 1-42 globulomer [4] = target: Abeta 1-42 globulomer (UniProt P05067); assay: MPA, CSF + 0.5 ng/mL globulomer, ZW3-16 wash
Abeta 1-42 globulomer [5] = target: Abeta 1-42 globulomer (UniProt P05067); assay: MPA, globulomer Abeta 42 RLU over average Abeta 40 RLU, ZW3-14 wash
Abeta 1-40 monomer = Abeta 1-40 monomer (UniProt P05067); assay: MPA bead capture, Abeta 1-40 read-out of the CSF sample (noise)
Abeta 1-42 monomer [6] = target: Abeta 1-42 monomer (UniProt P05067); assay: MPA, unspiked CSF background, Empigen wash
Abeta42 fibrils [7] = target: Abeta42 fibrils (UniProt P05067); assay: MPA, serial dilutions in CSF, LoD = 2x over background
[8] = target: Abeta (1-42) aggregates from Alzheimer's Disease Brain Homogenate (human) (UniProt P05067); assay: as above
ASPD (Abeta42 aggregate) = ASPD (Abeta42 aggregate) (UniProt P05067); assay: as above
Abeta 1-42 globulomer [9] = target: Abeta 1-42 globulomer (UniProt P05067); assay: as above
ADDL (Abeta42 aggregate) [10] = target: ADDL (Abeta42 aggregate) (UniProt P05067); assay: as above
Abeta 1-42 globulomer [11] = target: Abeta 1-42 globulomer (UniProt P05067); assay: MPA, CSF + 0.5 ng/mL globulomer, Pluronic F-127 wash
Abeta 1-42 globulomer [12] = target: Abeta 1-42 globulomer (UniProt P05067); assay: MPA, CSF + 0.5 ng/mL globulomer, Empigen wash
Abeta 1-42 monomer [13] = target: Abeta 1-42 monomer (UniProt P05067); assay: MPA, unspiked CSF background, ASB-16 wash
Abeta 1-42 globulomer [14] = target: Abeta 1-42 globulomer (UniProt P05067); assay: MPA, globulomer Abeta 42 RLU over average Abeta 40 RLU, ASB-16 wash
Abeta 1-42 globulomer [15] = target: Abeta 1-42 globulomer (UniProt P05067); assay: MPA bead capture, CSF + 1 ng/mL globulomer, Abeta immunoassay
Abeta 1-42 globulomer [16] = target: Abeta 1-42 globulomer (UniProt P05067); assay: MPA, 0.5 over 0 ng/mL globulomer in CSF, ASB-14 wash
Abeta 1-42 globulomer [17] = target: Abeta 1-42 globulomer (UniProt P05067); assay: MPA, globulomer Abeta 42 RLU over average Abeta 40 RLU, ASB-14 wash
Abeta 1-42 monomer [18] = target: Abeta 1-42 monomer (UniProt P05067); assay: MPA, unspiked CSF background, ZW3-12 wash
Abeta 1-42 globulomer [19] = target: Abeta 1-42 globulomer (UniProt P05067); assay: MPA, globulomer Abeta 42 RLU over average Abeta 40 RLU, Empigen wash
Abeta 1-42 globulomer [20] = target: Abeta 1-42 globulomer (UniProt P05067); assay: MPA, globulomer Abeta 42 RLU over average Abeta 40 RLU, ZW3-16 wash
Abeta 1-42 globulomer [21] = target: Abeta 1-42 globulomer (UniProt P05067); assay: MPA, 0.5 over 0 ng/mL globulomer in CSF, ASB-C8phn wash
Abeta 1-42 globulomer [22] = target: Abeta 1-42 globulomer (UniProt P05067); assay: MPA, CSF + 0.5 ng/mL globulomer, ASB-16 wash
Abeta 1-42 globulomer [23] = target: Abeta 1-42 globulomer (UniProt P05067); assay: MPA, globulomer Abeta 42 RLU over average Abeta 40 RLU, ASB-C8phn wash
Abeta 1-42 monomer [24] = target: Abeta 1-42 monomer (UniProt P05067); assay: MPA, unspiked CSF background, ASB-C8phn wash
Abeta 1-42 globulomer [25] = target: Abeta 1-42 globulomer (UniProt P05067); assay: MPA, globulomer Abeta 42 RLU over average Abeta 40 RLU, Brij 35 wash
Abeta 1-42 globulomer [26] = target: Abeta 1-42 globulomer (UniProt P05067); assay: MPA, pulldown in CSF, 1% TW20 wash
Abeta 1-42 globulomer [27] = target: Abeta 1-42 globulomer (UniProt P05067); assay: MPA, pulldown in TBSTT, no added detergent wash
Abeta 1-42 monomer [28] = target: Abeta 1-42 monomer (UniProt P05067); assay: MPA, unspiked CSF background, ZW3-08 wash
Abeta 1-42 globulomer [29] = target: Abeta 1-42 globulomer (UniProt P05067); assay: MPA, globulomer Abeta 42 RLU over average Abeta 40 RLU, Pluronic F-127 wash
Abeta 1-42 globulomer [30] = target: Abeta 1-42 globulomer (UniProt P05067); assay: MPA, CSF + 0.5 ng/mL globulomer, ZW3-12 wash
Abeta 1-42 globulomer [31] = target: Abeta 1-42 globulomer (UniProt P05067); assay: MPA, globulomer Abeta 42 RLU over average Abeta 40 RLU, ZW3-12 wash
Abeta 1-42 globulomer [32] = target: Abeta 1-42 globulomer (UniProt P05067); assay: MPA, CSF + 0.5 ng/mL globulomer, Brij 35 wash
Abeta 1-42 globulomer [33] = target: Abeta 1-42 globulomer (UniProt P05067); assay: MPA, CSF + 0.5 ng/mL globulomer, ASB-C8phn wash
Abeta 1-42 monomer [34] = target: Abeta 1-42 monomer (UniProt P05067); assay: MPA, unspiked CSF background, ZW3-14 wash
Abeta42 fibrils [35] = target: Abeta42 fibrils (UniProt P05067); assay: MPA, serial dilutions in CSF, LoD = 2x over background; remark: listed apart in the source
ADDL (Abeta42 aggregate) [36] = target: ADDL (Abeta42 aggregate) (UniProt P05067); assay: as above; remark: listed apart in the source
Abeta 1-42 globulomer [37] = target: Abeta 1-42 globulomer (UniProt P05067); assay: MPA, 0.5 over 0 ng/mL globulomer in CSF, ZW3-16 wash

PrPSc, prion aggregates of prion infected hamster (Syrian hamster), sequence (P04273 23-231 limits assumed): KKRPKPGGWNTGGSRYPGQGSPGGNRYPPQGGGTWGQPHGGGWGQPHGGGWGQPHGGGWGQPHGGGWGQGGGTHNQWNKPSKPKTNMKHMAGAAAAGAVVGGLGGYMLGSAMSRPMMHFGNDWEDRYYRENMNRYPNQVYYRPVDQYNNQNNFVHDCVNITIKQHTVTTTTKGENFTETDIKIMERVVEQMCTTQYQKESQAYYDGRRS

PSR1 (peptoid, directly conjugated to Dynal M270 beads)
42:40 ratio (Abeta 1-42 globulomer [1]): 4.1
S/N Abeta 42 globulomer-spiked/unspiked (Abeta 1-42 globulomer [2]): 7.7
Attack rate (Clinical TSE/total inoculated), Pool 2 [3]: 100%
Attack rate (Clinical TSE/total inoculated), Pool 3 (pre-symptomatic) [3]: 50%
Attack rate (Clinical TSE/total inoculated), Pool 4 [3]: 100%
Mean incubation period (days), Pool 1 [3]: 94 dpi
Mean incubation period (days), Pool 2 [3]: 74 dpi
Mean incubation period (days), Pool 4 [3]: 76 dpi
incubation period (days), Pool 3 (pre-symptomatic) [3]: 56 days and 85 days
Abeta 42 RLU, 0.5 ng/mL Average (Abeta 1-42 globulomer [4]): 731 RLU
S/N Abeta 42 globulomer-spiked/Abeta 40 (Abeta 1-42 globulomer [5]): 2.2
average RLU (40) (Abeta 1-40 monomer): 234 RLU
Abeta 42 RLU, 0 ng/mL Average (Abeta 1-42 monomer [6]): 76.7 RLU
LoD (Abeta42 fibrils [7]): 50 pg/mL
LoD [8]: < 5 pg/mL
LoD (ASPD (Abeta42 aggregate)): 200 pg/mL
LoD (Abeta 1-42 globulomer [9]): 75 pg/mL
LoD (ADDL (Abeta42 aggregate) [10]): 200 pg/mL
Abeta 42 RLU, 0.5 ng/mL Average (Abeta 1-42 globulomer [11]): 739 RLU
Abeta 42 RLU, 0.5 ng/mL Average (Abeta 1-42 globulomer [12]): 670 RLU
Abeta 42 RLU, 0 ng/mL Average (Abeta 1-42 monomer [13]): 95.7 RLU
S/N Abeta 42 globulomer-spiked/Abeta 40 (Abeta 1-42 globulomer [14]): 2.8
average RLU (42) (Abeta 1-42 globulomer [15]): 970 RLU
S/N Abeta 42 globulomer-spiked/unspiked (Abeta 1-42 globulomer [16]): 8.7
S/N Abeta 42 globulomer-spiked/Abeta 40 (Abeta 1-42 globulomer [17]): 2
Abeta 42 RLU, 0 ng/mL Average (Abeta 1-42 monomer [18]): 90.7 RLU
S/N Abeta 42 globulomer-spiked/Abeta 40 (Abeta 1-42 globulomer [19]): 2.6
S/N Abeta 42 globulomer-spiked/Abeta 40 (Abeta 1-42 globulomer [20]): 3.7
S/N Abeta 42 globulomer-spiked/unspiked (Abeta 1-42 globulomer [21]): 9.3
Abeta 42 RLU, 0.5 ng/mL Average (Abeta 1-42 globulomer [22]): 789 RLU
S/N Abeta 42 globulomer-spiked/Abeta 40 (Abeta 1-42 globulomer [23]): 1.4
Abeta 42 RLU, 0 ng/mL Average (Abeta 1-42 monomer [24]): 101 RLU
S/N Abeta 42 globulomer-spiked/Abeta 40 (Abeta 1-42 globulomer [25]): 1
LoD of globulomer, RLU (S/N = 2) (Abeta 1-42 globulomer [26]): 211 RLU
LoD of globulomer, pg/mL (Cal) (Abeta 1-42 globulomer [26]): 2.52 pg/mL
S/N at 25.3 pg/mL (Abeta 1-42 globulomer [26]): 11
LoD of globulomer, RLU (S/N = 2) (Abeta 1-42 globulomer [27]): 204 RLU
LoD of globulomer, pg/mL (Cal) (Abeta 1-42 globulomer [27]): 2.34 pg/mL
S/N at 25.3 pg/mL (Abeta 1-42 globulomer [27]): 13.7
Abeta 42 RLU, 0 ng/mL Average (Abeta 1-42 monomer [28]): 97.7 RLU
S/N Abeta 42 globulomer-spiked/Abeta 40 (Abeta 1-42 globulomer [29]): 0.9
Abeta 42 RLU, 0.5 ng/mL Average (Abeta 1-42 globulomer [30]): 642 RLU
S/N Abeta 42 globulomer-spiked/Abeta 40 (Abeta 1-42 globulomer [31]): 1.4
Abeta 42 RLU, 0.5 ng/mL Average (Abeta 1-42 globulomer [32]): 741 RLU
Abeta 42 RLU, 0.5 ng/mL Average (Abeta 1-42 globulomer [33]): 936 RLU
Abeta 42 RLU, 0 ng/mL Average (Abeta 1-42 monomer [34]): 110 RLU
LoD (Abeta42 fibrils [35]): 50 pg/mL
LoD (amol) (Abeta42 fibrils [35]): < 2 amol
LoD (ADDL (Abeta42 aggregate) [36]): 200 pg/mL
LoD (amol) (ADDL (Abeta42 aggregate) [36]): 20 amol
S/N Abeta 42 globulomer-spiked/unspiked (Abeta 1-42 globulomer [37]): 10.9
